Biological target: human MN protein, entire extra-cellular domain with a C-terminal histag, expressed in HKB-11 cells (human, UniProt Q16790 38-414)
Assay: BIAcore; crude Fab

Kd: 25 nM
B1: 5aa3 Crude Fab (antibody, V domains shown)
VH: ELVQSGAEVKKPGESLKISCKGSGYSFTGYISWVRQAPGKGLEWMGIIYPGDSYTNYSPSFQGQVTISADKSISTAYLQWSSLKASDTAMYYCARYSGPNWDVMDSWGQGTLVTVSS
VL: DIVLTQPPSVSGAPGQRVTISCSGSSSNIGSYYVNWYQQLPGTAPKLLIYADDKRPSGVPDRFSGSKSGTSASLAITGLQSEDEADYYCQSYDSTKDDSVFGGGTKL
